Article PMC3549492

Legend:
[1] = target: N-terminal HaloTag human KIF1A (amino acids 1-361) fusion protein (human) (UniProt Q12756); test: pull-down; HaloTag-Kif1a (1-361) on HaloLink magnetic beads under saturated conditions; MTs with or without full-length human Dcx; 5 μM of each protein; 4 mM ATP, ADP or AMP-PNP; supernatant and pellet, silver staining, densitometry, bound fraction P/(S+P) normalized to ATP without Dcx
[2] = target: MTs of the traditional MT pull-down assay from lysates; test: pull-down; traditional MT pull-down assay with AMP-PNP; lysates from HEK cells expressing Kif1 (1-365) with or without Dcx (amino acids 1-270); excess MTs

porcine MTs (microtubules) (complex) showed a fold increase of Kif1a-MT binding with Dcx in the presence of ADP, against a Dcx-negative control [1] of 2 fold.

B1: motor domain of Kif1 (amino acids 1-365) (domain or fragment)
chain: MAGASVKVAVRVRPFNSREMSRDSKCIIQMSGSTTTIVNPKQPKETPKSFSFDYSYWSHTSPEDINYASQKQVYRDIGEEMLQHAFEGYNVCIFAYGQTGAGKSYTMMGKQEKDQQGIIPQLCEDLFSRINDTTNDNMSYSVEVSYMEIYCERVRDLLNPKNKGNLRVREHPLLGPYVEDLSKLAVTSYNDIQDLMDSGNKARTVAATNMNETSSRSHAVFNIIFTQKRHDAETNITTEKVSKISLVDLAGSERADSTGAKGTRLKEGANINKSLTTLGKVISALAEMDSGPNKNKKKKKTDFIPYRDSVLTWLLRENLGGNSRTAMVAALSPADINYDETLSTLRYADRAKQIRCNAVINEDPN
Molecule B1 has an increase in binding of Kif1a to MTs with Dcx (amino acids 1-270) over control [2] of 15 to 20%.
